The assay addresses FcαRI (CD89) (Homo sapiens, UniProt P24071). The assay is described as follows: SPR.

FcαRI (CD89), sequence (P24071 22-287): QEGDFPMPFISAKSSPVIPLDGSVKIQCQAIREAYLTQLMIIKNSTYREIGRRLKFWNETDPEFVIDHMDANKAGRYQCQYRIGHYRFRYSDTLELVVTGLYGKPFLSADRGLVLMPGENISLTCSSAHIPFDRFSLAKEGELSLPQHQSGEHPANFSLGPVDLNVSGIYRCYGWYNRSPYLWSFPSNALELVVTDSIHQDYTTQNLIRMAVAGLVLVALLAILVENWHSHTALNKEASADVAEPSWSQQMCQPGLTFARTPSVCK

B1: IgA2 (glycoforms) (protein)
chain: ASPTSPKVFPLSLDSTPQDGNVVVACLVQGFFPQEPLSVTWSESGQNVTARNFPPSQDASGDLYTTSSQLTLPATQCPDGKSVTCHVKHYTNSSQDVTVPCRVPPPPPCCHPRLSLHRPALEDLLLGSEANLTCTLTGLRDASGATFTWTPSSGKSAVQGPPERDLCGCYSVSSVLPGCAQPWNHGETFTCTAAHPELKTPLTANITKSGNTFRPEVHLLPPPSEELALNELVTLTCLARGFSPKDVLVRWLQGSQELPREKYLTWASRQEPSQGTTTYAVTSILRVAAEDWKKGETFSCMVGHEALPLAFTQKTIDRMAGSCCVADWQMPPPYVVLDLPQETLEEETPGANLWPTTITFLTLFLLSLFYSTALTVTSVRGPSGKREGPQY
B1 showed a Kd of approximately 300 nM.

These data come from publication PMC11026580 (2024).
